Test results reported in patent US20200299396A1 (BALIOPHARMA, published 2020).
Blank lines part the entries; values can stand above or below the binder they belong to.

Columns and labels:
[1] = biological target: T1, human TNFR1 on the cellular surface of HeLa, HT1080 and Kym-1 cells (human, UniProt P19438 30-455); experiment: cell-based or functional assay
T1 sequence: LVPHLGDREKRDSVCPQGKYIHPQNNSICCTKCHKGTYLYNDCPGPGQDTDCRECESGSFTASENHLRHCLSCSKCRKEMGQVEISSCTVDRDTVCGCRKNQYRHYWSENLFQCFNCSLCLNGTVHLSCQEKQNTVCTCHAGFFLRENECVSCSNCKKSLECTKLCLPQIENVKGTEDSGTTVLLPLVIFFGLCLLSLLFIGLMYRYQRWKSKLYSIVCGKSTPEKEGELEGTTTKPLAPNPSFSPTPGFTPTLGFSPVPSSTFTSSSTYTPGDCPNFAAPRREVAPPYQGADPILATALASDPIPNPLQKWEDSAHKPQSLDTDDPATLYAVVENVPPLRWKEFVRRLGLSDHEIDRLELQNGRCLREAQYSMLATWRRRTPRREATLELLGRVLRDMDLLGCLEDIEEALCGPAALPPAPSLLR

[2] = biological target: T1, human TNFR1 on the cellular surface of …; experiment: cell-based or functional assay; remark: listed apart in the source
[3] = biological target: T2, Recombinant human TNFR1-Fc fusion protein (human, UniProt P19438 30-211, limits assumed); experiment: ELISA under equilibrium conditions, TNFR1-Fc coated
T2 construct: not shown: Fc part
T2 sequence: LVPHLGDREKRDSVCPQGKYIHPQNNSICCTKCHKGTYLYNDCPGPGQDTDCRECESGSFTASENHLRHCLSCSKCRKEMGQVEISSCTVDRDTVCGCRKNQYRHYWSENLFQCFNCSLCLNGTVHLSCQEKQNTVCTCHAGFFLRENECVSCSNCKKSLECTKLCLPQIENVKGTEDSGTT
Description: (§1) Microtiter plates were coated with 100 μl of TNFR1-Fc fusion protein (1 μg/ml in PBS) and incubated at 4° C. overnight. The residual binding sites were blocked with 2% MPBS (skim milk in PBS, 200 μl per well) at room temperature for 2 hours and subsequently washed twice with PBS. 100 μl of the samples diluted in 2% MPBS were incubated at room temperature for 1 hour prior to the last incubation step with 100 μl of the HRP conjugated detection antibodies in 2% MPBS. Bound protein was detected with 100 μl TMB substrate solution (1 mg/ml 3,3′,5,5′-Tetramethylbenzidine[TMB], 0.006% H₂O₂ in 100 mM Na-acetate buffer, pH 6 at RT), the HRP-reaction was stopped by the addition of 50 μl 1 M H₂SO₄ and the absorption at the wavelength of 450 nm was measured using the Infinite microtiter plate reader (TECAN, Maennedorf, Switzerland). Between each incubation step and in advance of the detection, the plates were washed twice times with PBST and twice with PBS.

[4] = biological target: T3, complement protein C1q (UniProt P02745 23-245; P02746 28-253; P02747 29-245); experiment: ELISA, antibody immobilized, C1q added, n=2; concentration not shown
T3 construct: also called C1q Complement protein

[5] = biological target: T2, Recombinant human TNFR1-Fc fusion …; experiment: ELISA under equilibrium conditions, TNFR1-Fc coated; ELISA under equilibrium conditions
Description: as §1

[6] = biological target: T4, human Fcγ receptor Ia (human, UniProt P12314 16-288, limits assumed); experiment: ELISA, antibody immobilized, human FcγRI added, n=2; concentration not shown
T4 construct: also called human FcγRI; FcγRI

[7] = biological target: T5, human Fcγ receptor IIIa (human, UniProt P08637 17-208, limits assumed); experiment: ELISA, antibody immobilized, human FcγRIII added, n=2; concentration not shown
T5 construct: also called human FcγRIII; FcγRIII

[8] = biological target: T6, human Fcγ receptor IIb (human, UniProt P31994 46-217, limits assumed); experiment: ELISA, antibody immobilized, human FcγRIIb added, n=2; concentration not shown
T6 construct: also called FcγRIIb
T6 sequence (looked up): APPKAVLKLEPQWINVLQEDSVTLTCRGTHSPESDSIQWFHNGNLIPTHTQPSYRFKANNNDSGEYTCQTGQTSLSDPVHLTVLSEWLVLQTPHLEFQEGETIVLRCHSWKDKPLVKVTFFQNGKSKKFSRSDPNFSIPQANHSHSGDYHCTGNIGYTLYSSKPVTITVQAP

[9] = biological target: T2, Recombinant human TNFR1-Fc fusion …; experiment: QCM at 37 C, TNFR1-Fc immobilized at ~94 ΔHz, 1:1 binding algorithm; quartz crystal microbalance, TNFR1 immobilized at ~94 ΔHz
Description: Real-time binding dynamics in protein-protein interactions were determined by quartz crystal microbalance measurements (Cell-200 C-Fast, Attana, Stockholm, Sweden). One of the binding partners (TNFR1-Fc) was chemically immobilized on a LNB Carboxyl Sensor Chip (3623-3103, Attana, Stockholm, Sweden) according to the manufacturer's protocol at a moderate density of ˜94 ΔHz. Binding experiments were performed with samples (analyte) diluted in PBST (PBS, 0.1% Tween 20) between 128 nM and 4 nM (1:2 dilution steps) at pH 7.4 with a flow rate of 25 μl/min at 37° C. The chip was regenerated with 25 μl 20 mM glycine, pH 2.0. Every third measurement, an injection of running buffer was measured which was subtracted from the binding curve prior to data analysis. Data were collected using the software provided by Attana and analyzed by Attaché Office Evaluation software (Attana, Stockholm, Sweden) and TraceDrawe (ridgview instruments, Vange, Sweden).

T5 sequence (P08637 17-208 limits assumed): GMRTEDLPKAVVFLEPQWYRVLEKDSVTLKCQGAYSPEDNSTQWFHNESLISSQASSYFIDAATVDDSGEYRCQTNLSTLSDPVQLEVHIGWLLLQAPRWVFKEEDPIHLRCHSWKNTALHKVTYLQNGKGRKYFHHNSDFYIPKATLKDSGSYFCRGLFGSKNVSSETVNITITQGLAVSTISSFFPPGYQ
T3 sequence (P02745 23-245 limits assumed, chain 1 of 3): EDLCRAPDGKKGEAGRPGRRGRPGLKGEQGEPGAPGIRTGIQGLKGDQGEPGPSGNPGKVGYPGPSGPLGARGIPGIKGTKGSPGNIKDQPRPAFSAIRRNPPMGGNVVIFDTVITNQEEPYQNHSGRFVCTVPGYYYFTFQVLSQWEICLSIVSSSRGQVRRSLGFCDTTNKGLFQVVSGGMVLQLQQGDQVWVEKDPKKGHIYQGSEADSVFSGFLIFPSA
T3 sequence (P02746 28-253 limits assumed, chain 2 of 3): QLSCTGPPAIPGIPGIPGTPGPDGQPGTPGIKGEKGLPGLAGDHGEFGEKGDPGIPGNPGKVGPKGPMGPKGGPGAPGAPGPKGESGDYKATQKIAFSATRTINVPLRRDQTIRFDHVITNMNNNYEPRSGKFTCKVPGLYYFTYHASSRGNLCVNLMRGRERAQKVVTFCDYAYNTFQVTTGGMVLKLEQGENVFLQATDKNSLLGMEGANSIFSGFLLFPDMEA
T3 sequence (P02747 29-245 limits assumed, chain 3 of 3): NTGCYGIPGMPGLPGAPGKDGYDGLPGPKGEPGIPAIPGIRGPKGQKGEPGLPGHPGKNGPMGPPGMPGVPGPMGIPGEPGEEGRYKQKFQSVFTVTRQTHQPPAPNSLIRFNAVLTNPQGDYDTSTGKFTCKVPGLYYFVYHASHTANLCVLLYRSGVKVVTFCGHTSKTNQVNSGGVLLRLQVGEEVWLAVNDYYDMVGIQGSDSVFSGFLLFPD
T4 sequence (P12314 16-288 limits assumed): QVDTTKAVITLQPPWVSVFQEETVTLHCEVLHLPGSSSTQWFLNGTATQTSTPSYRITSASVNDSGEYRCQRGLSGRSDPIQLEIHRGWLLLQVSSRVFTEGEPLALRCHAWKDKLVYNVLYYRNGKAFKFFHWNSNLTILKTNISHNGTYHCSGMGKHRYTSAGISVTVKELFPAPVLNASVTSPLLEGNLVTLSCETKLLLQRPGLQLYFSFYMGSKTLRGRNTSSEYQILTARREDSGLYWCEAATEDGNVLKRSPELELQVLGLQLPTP

- fold more potent inhibition compared to ATROSAB, IL-6 release assay [1]: 3 fold
- fold more potent inhibition compared to ATROSAB, IL-8 release assay [1]: 3.5 fold
- IC50, IL-6 [nM] (IL-6 release from HeLa cells, 0.1 nM TNF) [2]: 54.5 nM
- IC50, IL-8 [nM] (IL-8 release from HT1080 cells, 0.1 nM TNF) [2]: 24.2 nM
- fold reduction in binding activity compared to ATROSAB [3]: 4 fold
- fold reduction in binding activity compared to Fab 13.7 [3]: 2 fold
- binding result [4]: no binding
- EC50 [5]: 0.4 nM
- binding result [6]: no binding
- binding result [7]: no binding
- binding result [8]: no binding
- Kd [9]: 2.7 nM
- koff [9]: 0.00098 s⁻¹
- kon [9]: 370000 M⁻¹ s⁻¹
B1: Atrosimab (antibody)
heavy: HVQLVQSGAEVKKPGSSVKVSCKASGYTFTDFYINWVRQAPGQGLEWIGEIVPSQGEAKYNDKFKARVTITADKSTSTAYMELSSLRSEDTAVYYCARWDFLDYWGQGTTVTVSSGTGGGSGPSVFLFPPKPKDTLMISRTPEVTCVVVDVSHEDPEVKFNWYVDGVEVHNAKTKPREEQYNSTYRVVSVLTVLHQDWLNGKEYKCKVSNKGLPSSIEKTISKAKGQPREPSVFIFPPSDEQLKSGTASVVCLVNNFYPRDIAVEWEVDNALQSGNSQESVTEQDSKDSTYSLSSTLTLSKADYEKHKVYSCSVMHEALHNHYTQKSFNRGEC
light: DVQMTQSPSSLSASVGDRVTITCRSSQSLLHSNGNTYLHWYQQKPGKAPKLLIYTVSNRFSGVPSRFSGSGSGTDFTLTISSLQPEDFATYYCSQSTHVPYTFGGGTKVEIKGTGGGSGPSVFLFPPKPKDTLMISRTPEVTCVVVDVSHEDPEVKFNWYVDGVEVHNAKTKPREEQYNSTYRVVSVLTVLHQDWLNGKEYKCKVSNKGLPSSIEKTISKAKGQPREPSVFPLAPSSKSTSGGTAALGCLVKDYFPSDIAVEWESGALTSGVHTFPAVLQSSGLYSLSSVVTVPSSSLGTQTYSCSVMHEALHNHYTQKSVEPKSC
notes: The Fc is modified to reduce effector functions; Produced in CHO cells; also called Fv13.7-Fc1k; VHkC/VL1C heterodimer
- fold more potent inhibition compared to ATROSAB, cell death induction assay [1]: 4 fold
- IC50, Cell death induction [nM] (Kym-1 cells, TNF-induced) [2]: 16.2 nM

- IC50, IL-6 [nM] (IL-6 release from HeLa cells, 0.1 nM TNF) [2]: 37.1 nM
- IC50, IL-8 [nM] (IL-8 release from HT1080 cells, 0.1 nM TNF) [2]: 12.7 nM
B2: Fab 13.7 (Fab, V domains shown)
VH: HVQLVQSGAEVKKPGSSVKVSCKASGYTFTDFYINWVRQAPGQGLEWIGEIVPSQGEAKYNDKFKARVTITADKSTSTAYMELSSLRSEDTAVYYCARWDFLDYWGQGTTVTVSS
VL: DVQMTQSPSSLSASVGDRVTITCRSSQSLLHSNGNTYLHWYQQKPGKAPKLLIYTVSNRFSGVPSRFSGSGSGTDFTLTISSLQPEDFATYYCSQSTHVPYTFGGGTKVEIKR
- IC50, Cell death induction [nM] (Kym-1 cells, TNF-induced) [2]: 9.5 nM
